In PMC9733695:

Target: human FcRn (neonatal Fc receptor), coupled to a Sepharose affinity column (human) (UniProt P55899)
Assay: FcRn affinity chromatography

UniProt P55899, sequence (P55899 whole entry, looked up, tested part not stated): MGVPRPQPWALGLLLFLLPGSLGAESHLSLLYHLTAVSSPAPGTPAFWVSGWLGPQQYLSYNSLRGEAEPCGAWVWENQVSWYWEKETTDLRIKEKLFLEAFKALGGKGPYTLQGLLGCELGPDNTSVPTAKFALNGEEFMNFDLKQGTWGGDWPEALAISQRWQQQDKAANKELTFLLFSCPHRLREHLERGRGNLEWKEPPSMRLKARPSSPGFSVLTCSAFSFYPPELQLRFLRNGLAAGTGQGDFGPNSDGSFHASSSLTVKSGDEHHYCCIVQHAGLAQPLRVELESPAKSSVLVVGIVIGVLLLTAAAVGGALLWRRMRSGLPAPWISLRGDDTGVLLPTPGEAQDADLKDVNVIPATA

Row | Substance | retention time on the FcRn affinity column [min]
1 | Antibody 4 TM (human IgG1 Fc with the TM modification) | 15.9
2 | Antibody 4 WT (wild-type human IgG1 Fc) | 16.3
